Test results: patent publication US6699969 (University of California, dated 2004)

B1: p80 delta 303-690, C-terminal truncation of S. purpuratus p80 katanin containing only the WD40 domain, with N-terminal S-Tag (other)
chain: MATKRAWKLQELVAHSSNVNCLALGPMSGRVMVTGGEDKKVNLWAVGKQNCIISLSGHTSPVDSVKFNSSEELVVAGSQSGTMKIYDLEPAKIVRTLTGHRNSIRCMDFHPFGEFVASGSTDTNVKLWDVRRKGCIYTYKGHSDQVNMIKFSPDGKWLVTASEDTTIKLWDLTMGKLFQEFKNHTGGVTGIEFHPNEFLLASGSSDRTVQFWDLETFQLVSSTSPGASAVRSISFHPDGSYLFCSSQDMLHAFGWEPIRCFDTFSVFWGKVADTVIASTQLIGASFNATNVSVYVADLSRMS
notes: not shown: 37 amino acid N-terminal S-Tag from pCITE-4a+
B2: baculovirus-expressed S. purpuratus katanin p60 subunit with N-terminal His(6) tag (enzyme, not shown: small tags and cut ends)
chain: MSVDEICENTKMGREYALLGNYETSLVYYQGVLQQIQKLLTSVHEPQRKHQWQTIRQELSQEYEHVKNITKTLNGFKSEPAAPEPAPNHGRAAPFSHHQHAAKPAAAEPARDPDVWPPPTPVDHRPSPPYQRAARKDPPRRSEPSKPANRAPGNDRGGRGPSDRRGDARSGGGGRGGARGSDKDKNRGGKSDKDKKAPSGEEGDEKKFDPAGYDKDLVENLERDIVQRNPNVHWADIAGLTEAKRLLEEAVVLPLWMPDYFKGIRRPWKGVLMVGPPGTGKTMLAKAVATECGTTFFNVSSASLTSKYHGESEKLVRLLFEMARFYAPSTIFIDEIDSICSKRGTGSEHEASRRVKSELLIQMDGVSGPSAGEESSKMVMVLAATNFPWDIDEALRRRLEKRIYIPLPEIDGREQLLRINLKEVPLADDIDLKSIAEKMDGYSGADITNVCRDASMMAMRRRIQGLRPEEIRHIPKEELNQPSTPADFLLALQKVSKSVGKEDLVKYMAWMEEFGSV
notes: Expressed in Sf9 cells and purified on Ni-NTA; also called p60 katanin; recombinant p60
B3: in vitro translated S. purpuratus p60 katanin with 37 amino acid N-terminal S-Tag (enzyme)
chain: B2 chain
notes: Made in a rabbit reticulocyte transcription-translation reaction; not shown: 37 amino acid N-terminal S-Tag from pCITE-4a+

What was measured:
[1] = molecular target: B3; assay: in vitro co-translation, immunoprecipitation with anti-p60 antibody, S-protein HRP blot
Description: (§1) In vitro synthesis of proteins directly from plasmid DNAs was accomplished using the Single Tube Protein System 2, T7 (Novagen). […] For immunoprecipitations, lysates were incubated on ice with Pansorbin (Calbiochem)-antibody complexes, washed in NET buffer (50 mM Tris-Cl (pH 7.5), 150 mM NaCl, 0.1% Nonidet P-40, 1 mM EDTA (pH 8.0), 0.25% gelatin 0.02% sodium azide), then resuspended in SDS-PAGE sample buffer. In vitro translation products in both the pellets and supernatants from the immunoprecipitations were resolved by SDS-PAGE, transferred to nitrocellulose, probed with S-protein HRP conjugate (Novagen) and detected by chemiluminescence.

[2] = molecular target: the molecule itself; assay: rotary-shadowing electron microscopy of recombinant p60
[3] = molecular target: T1, baculovirus-expressed S. purpuratus katanin p80 subunit with N-terminal His(6) tag (Strongylocentrotus purpuratus, UniProt O61585 1-690); assay: co-expression in insect cells, metal affinity purification, Coomassie staining
T1 construct: Expressed in Sf9 cells and purified on Ni-NTA; GenBank AF052433; also called p80 katanin; recombinant p80
T1 sequence: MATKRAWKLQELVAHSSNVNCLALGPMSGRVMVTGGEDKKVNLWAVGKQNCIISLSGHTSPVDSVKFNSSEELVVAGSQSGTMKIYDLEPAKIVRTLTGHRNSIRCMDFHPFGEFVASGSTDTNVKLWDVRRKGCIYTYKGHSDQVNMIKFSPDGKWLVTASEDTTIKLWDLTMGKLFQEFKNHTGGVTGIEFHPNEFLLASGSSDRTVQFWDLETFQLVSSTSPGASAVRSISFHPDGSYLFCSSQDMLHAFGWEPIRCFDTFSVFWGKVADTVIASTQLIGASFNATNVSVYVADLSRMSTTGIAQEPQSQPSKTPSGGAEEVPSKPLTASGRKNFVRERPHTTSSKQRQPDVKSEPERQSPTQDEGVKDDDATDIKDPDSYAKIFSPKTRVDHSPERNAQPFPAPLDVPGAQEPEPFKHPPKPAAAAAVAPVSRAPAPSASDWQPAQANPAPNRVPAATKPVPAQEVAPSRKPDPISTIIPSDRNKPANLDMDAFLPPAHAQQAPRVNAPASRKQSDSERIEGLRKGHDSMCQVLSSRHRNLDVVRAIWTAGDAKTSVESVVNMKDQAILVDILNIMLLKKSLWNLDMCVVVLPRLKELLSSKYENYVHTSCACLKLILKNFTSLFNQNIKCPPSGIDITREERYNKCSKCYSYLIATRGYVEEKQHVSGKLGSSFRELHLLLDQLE
Description: 6×His-tagged katanin subunits were purified from lysates of baculovirus-infected insect cells by binding to Ni^2+-NTA Superflow followed by elution with imidazole, as described in the Experimental Procedures. […] Proteins bound to the resin were analyzed by SDS-PAGE followed by staining with Coomassie.
Deciphering the roles of the two katanin subunits is essential for understanding the enzyme's mechanism and biological activities. […] We therefore sought to express the two subunits together and separately and then test their enzymatic activities.

[4] = molecular target: T2, p80 delta 560-690, S. purpuratus p80 katanin deletion lacking the C-terminal 130 amino acids, with N-terminal … (Strongylocentrotus purpuratus, UniProt O61585 1-559); assay: in vitro co-translation, immunoprecipitation with anti-p60 antibody, S-protein HRP blot
T2 construct: Residues 560-690 deleted by the construct's name; The text says 'C-terminal 130 amino acids', but 560-690 counts 131 residues; also called 560-690 deletion derivative of p80; not shown: 37 amino acid N-terminal S-Tag from pCITE-4a+
T2 sequence: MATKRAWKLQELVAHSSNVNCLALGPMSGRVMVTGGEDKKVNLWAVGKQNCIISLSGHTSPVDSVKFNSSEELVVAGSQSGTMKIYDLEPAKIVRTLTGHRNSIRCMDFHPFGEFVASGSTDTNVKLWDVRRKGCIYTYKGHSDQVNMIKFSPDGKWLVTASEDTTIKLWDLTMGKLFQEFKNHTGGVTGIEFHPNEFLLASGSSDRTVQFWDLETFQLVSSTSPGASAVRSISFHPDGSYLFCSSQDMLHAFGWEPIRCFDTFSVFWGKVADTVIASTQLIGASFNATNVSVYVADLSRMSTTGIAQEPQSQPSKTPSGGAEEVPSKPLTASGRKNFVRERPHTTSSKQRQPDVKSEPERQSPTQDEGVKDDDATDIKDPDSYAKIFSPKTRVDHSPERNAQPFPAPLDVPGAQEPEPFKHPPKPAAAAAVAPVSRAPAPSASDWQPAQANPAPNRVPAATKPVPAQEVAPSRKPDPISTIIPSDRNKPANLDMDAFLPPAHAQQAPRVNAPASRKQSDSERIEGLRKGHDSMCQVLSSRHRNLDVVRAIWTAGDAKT
Description: as §1

B1: no binding [1].

B2 was tested, and the binding result [2] was “binds” and the “p60:p80 molar ratio in the co-purified protein” value [3] was ~0.9 mol p80 per 1.0 mol p60.

B3: no binding [4].
